Results taken from patent US20030087315A1 (MCP HAHNEMANN UNIVERSITY, published 2003).
No end group written: not given here. *: point of attachment. Biotin = O=C1N[C@H]2[C@H](CS[C@H]2CCCCC(=O)*)N1

Experiments:
[1] = molecular target: T1, α1(I) chain of type I collagen (mouse, UniProt P11087 168-1181, limits assumed); assay: electroblot assay, FIG. 5B
T1 construct: Denatured chain on a nitrocellulose filter; pepsin-treated collagen; also called α1 chain
Text: (§1) The α1(I) and α2(I) chains of type I collagen or CNBr fragments of the chains were separated by polyacrylamide gel electrophoresis and electroblotted onto filters. The filters were then hybridized with a biotinylated telopeptide followed by assay of the washed filter with streptavidin-horseradish peroxidase. “CNBr+” indicates α1(I) or α2(I) chains which were digested with cyanogen bromide.
(§2) Type I collagen extracted with 0.5 M acetic acid from mouse skin was digested with pepsin, and the a chains separated by gel electrophoresis in SDS. To generate CNBr peptides, gel slices containing α1(1) and α2(I) chains were placed into tubes and a chains were digested with 10 mg/ml or 200 mg/ml CNBr in 70% formic acid at room temperature overnight. The gel slices were equilibrated with 0.05 mM Tris-HCl buffer (pH 6.8) over 3 hours. Gel pieces containing CNBr peptides derived from individual collagen a chains were transferred into the wells of the second gel prepared with a 6% polyacrylamide stacking gel and 12% polyacrylamide separating gel with 0.5 M urea. After electrophoresis, the gel was electroblotted overnight at 4° C. onto a nitrocellulose filter (Millipore). […] The bands were detected by chemiluminescence (ECL; Amersham) after exposure to an X-ray film for 3 to 10 min.

[2] = molecular target: T2, α2(I) chain of type I collagen (mouse, UniProt Q01149 97-1110, limits assumed); assay: filter binding assay, electroblotted chains, avidin-peroxidase
T2 construct: Denatured chain on a nitrocellulose filter; pepsin-treated collagen
Text: as §1
Type I collagen extracted with 0.5 M acetic acid from mouse skin was digested with pepsin, and the a chains separated by gel electrophoresis in SDS. To generate CNBr peptides, gel slices containing α1(1) and α2(I) chains were placed into tubes and a chains were digested with 10 mg/ml or 200 mg/ml CNBr in 70% formic acid at room temperature overnight. The gel slices were equilibrated with 0.05 mM Tris-HCl buffer (pH 6.8) over 3 hours. Gel pieces containing CNBr peptides derived from individual collagen a chains were transferred into the wells of the second gel prepared with a 6% polyacrylamide stacking gel and 12% polyacrylamide separating gel with 0.5 M urea. After electrophoresis, the gel was electroblotted overnight at 4° C. onto a nitrocellulose filter (Millipore). To study binding of telopeptides to collagen fragments, the method described by Fujisawa et al. (Fujisawa et al., 1994, Calcif. Tiss. Int. 56:140-144) was used. The filters were blocked with 1% bovine serum albumin (Sigma) and then incubated overnight with 20 ml of 5 mg/ml peptide that was substituted at the N-terminus with biotin (synthesized for us by American Peptide Company, Inc.). The filter was washed three times with Tris-buffered saline containing 0.02% Tween (TBST) and incubated 30 min with a 1:30,000 dilution of horseradish peroxidase conjugated with avidin (Sigma). The bands were detected by chemiluminescence (ECL; Amersham) after exposure to an X-ray film for 3 to 10 min.

[3] = molecular target: T1, α1(I) chain of type I collagen; assay: electroblot assay, FIG. 5C
Text: as §1, §2

T2 sequence (Q01149 97-1110 limits assumed): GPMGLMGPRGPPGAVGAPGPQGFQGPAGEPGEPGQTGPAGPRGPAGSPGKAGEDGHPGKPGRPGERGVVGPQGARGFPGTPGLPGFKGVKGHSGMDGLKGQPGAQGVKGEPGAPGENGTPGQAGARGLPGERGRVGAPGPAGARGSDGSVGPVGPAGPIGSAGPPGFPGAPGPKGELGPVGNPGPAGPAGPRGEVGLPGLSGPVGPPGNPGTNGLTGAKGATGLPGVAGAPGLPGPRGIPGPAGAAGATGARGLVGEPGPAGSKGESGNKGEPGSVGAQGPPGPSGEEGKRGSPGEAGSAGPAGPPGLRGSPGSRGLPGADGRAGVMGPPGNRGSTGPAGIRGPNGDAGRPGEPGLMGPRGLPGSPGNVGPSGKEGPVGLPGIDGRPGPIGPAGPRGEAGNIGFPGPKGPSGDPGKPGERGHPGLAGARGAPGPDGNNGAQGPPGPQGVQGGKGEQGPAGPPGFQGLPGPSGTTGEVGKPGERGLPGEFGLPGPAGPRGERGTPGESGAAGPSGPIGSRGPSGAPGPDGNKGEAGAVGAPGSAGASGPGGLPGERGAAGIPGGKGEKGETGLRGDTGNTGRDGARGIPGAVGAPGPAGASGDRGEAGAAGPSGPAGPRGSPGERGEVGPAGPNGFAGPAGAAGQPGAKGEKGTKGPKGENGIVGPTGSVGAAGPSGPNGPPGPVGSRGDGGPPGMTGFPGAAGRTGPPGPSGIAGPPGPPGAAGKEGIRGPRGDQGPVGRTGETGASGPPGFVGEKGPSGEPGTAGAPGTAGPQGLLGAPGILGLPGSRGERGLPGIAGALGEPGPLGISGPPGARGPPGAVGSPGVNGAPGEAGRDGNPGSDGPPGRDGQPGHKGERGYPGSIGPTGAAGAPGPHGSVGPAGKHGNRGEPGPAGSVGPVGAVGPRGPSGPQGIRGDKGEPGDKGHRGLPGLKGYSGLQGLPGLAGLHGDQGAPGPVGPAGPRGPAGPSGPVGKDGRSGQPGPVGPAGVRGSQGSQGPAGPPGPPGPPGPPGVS
T1 sequence (P11087 168-1181 limits assumed): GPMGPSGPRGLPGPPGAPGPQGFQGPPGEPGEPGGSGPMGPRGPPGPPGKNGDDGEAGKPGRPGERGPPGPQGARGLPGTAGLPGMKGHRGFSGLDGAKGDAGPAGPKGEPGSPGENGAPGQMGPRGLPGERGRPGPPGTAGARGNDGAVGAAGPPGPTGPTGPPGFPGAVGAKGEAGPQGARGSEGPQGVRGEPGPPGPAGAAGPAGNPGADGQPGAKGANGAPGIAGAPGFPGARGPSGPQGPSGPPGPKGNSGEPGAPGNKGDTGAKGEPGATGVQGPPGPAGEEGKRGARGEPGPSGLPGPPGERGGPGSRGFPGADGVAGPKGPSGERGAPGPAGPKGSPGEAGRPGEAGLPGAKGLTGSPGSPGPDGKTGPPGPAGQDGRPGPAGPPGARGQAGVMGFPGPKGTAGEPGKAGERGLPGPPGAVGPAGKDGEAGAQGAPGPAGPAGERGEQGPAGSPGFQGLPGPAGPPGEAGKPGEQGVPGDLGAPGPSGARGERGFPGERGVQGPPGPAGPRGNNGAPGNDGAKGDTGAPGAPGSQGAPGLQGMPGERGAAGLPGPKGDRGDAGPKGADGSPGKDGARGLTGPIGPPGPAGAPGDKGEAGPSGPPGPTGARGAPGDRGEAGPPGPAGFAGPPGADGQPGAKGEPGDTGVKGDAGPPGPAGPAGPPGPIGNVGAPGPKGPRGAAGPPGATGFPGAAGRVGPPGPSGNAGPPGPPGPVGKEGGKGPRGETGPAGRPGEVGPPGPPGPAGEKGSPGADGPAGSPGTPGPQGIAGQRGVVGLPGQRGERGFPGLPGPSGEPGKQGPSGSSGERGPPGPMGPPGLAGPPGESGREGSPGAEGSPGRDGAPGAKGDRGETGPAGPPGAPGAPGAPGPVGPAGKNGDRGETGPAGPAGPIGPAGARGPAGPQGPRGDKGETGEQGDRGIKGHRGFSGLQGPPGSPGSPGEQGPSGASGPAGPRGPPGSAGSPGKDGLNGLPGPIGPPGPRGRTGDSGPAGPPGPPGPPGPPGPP

| binding result [1] | binding result [3] | Binder | binding result [2] |
| --- | --- | --- | --- |
| binds |  | Biotin-GGGYDFGYDGDFYRA (also called biotinylated F3) [biotinylated C-telopeptide of α2 chain of human type I collagen] | no binding (tested: 5 mg/ml peptide (so in the source)) |
|  | binds | Biotin-QLSYGYDEKSTGGISVP (also called biotinylated α1 N-telopeptide) [biotinylated N-telopeptide of the α1 chain of human type I collagen] | no binding (tested: 5 mg/ml peptide (so in the source)) |
|  |  | Biotin-QYDGKGVGLGP (peptide, UniProt P08123 80-90, looked up, domain: N-telopeptide; also called biotinylated α2 N-telopeptide) [biotinylated N-telopeptide of α2 chain of human type I collagen] | no binding (tested: 5 mg/ml peptide (so in the source)) |
